Data: PMC5374589

Biological target: Murine PD-L1 (murine) (UniProt Q9EP73)
UniProt Q9EP73, sequence (Q9EP73 19-290): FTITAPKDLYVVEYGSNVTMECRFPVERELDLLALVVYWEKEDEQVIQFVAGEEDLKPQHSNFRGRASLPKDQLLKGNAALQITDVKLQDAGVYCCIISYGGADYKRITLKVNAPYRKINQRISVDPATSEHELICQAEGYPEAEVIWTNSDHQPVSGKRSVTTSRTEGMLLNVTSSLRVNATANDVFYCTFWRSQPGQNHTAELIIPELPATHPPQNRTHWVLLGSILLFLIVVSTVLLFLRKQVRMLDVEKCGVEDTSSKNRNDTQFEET

Work on PD-1-CD28 fusion receptor yielded a T cell-induced lysis of EG7-PD-L1 target cells in co-culture with PD-1-CD28 fusion receptor transduced OVA-specific CD8+ T cells of 3 fold.
